From patent publication US10124035B2, “DISC-1 pathway activators in the control of neurogenesis” (Massachusetts Institute of Technology, priority 2008, dated 2018)
Entries after “also recorded” stand apart in the source; their conditions may differ. Each block holds one molecule with its values, some of them ahead of it.

Experiments:
[1] = biological target: T1, GSK3β (Homo sapiens, UniProt P49841); experiment: GSK3β in vitro kinase assay (β-catenin/axin phosphorylation, Y216 autophosphorylation); type: biochemical; details: for inhibition of GSK3β activity by DISC1 fragments: no single concentration, dose dependence, rank
T1 construct: GST; purchased Active Motif (Carlsbad, Calif.)
Description: • Mice. Swiss Webster pregnant female mice were purchased from Taconic (Hudson, N.Y.). • Cell Culture. AHPs were kindly provided by Dr. Gage (Lie, D. C. et al. Wnt signaling to regulates adult hippocampal neurogenesis. Nature 437, 1370-5 (2005)) and cultured under conditions described previously (Palmer, T. D., Takahashi, J. & Gage, F. H. The adult rat hippocampus contains primordial neural stem cells. Mol Cell Neurosci 8, 389-404 (1997)). Primary neural progenitors were isolated from E14 mouse embryos and cultured as described previously (Sanada, K. & Tsai, L. H. G protein betagamma subunits and AGS3 control spindle orientation and asymmetric cell fate of cerebral cortical progenitors. Cell 122, 119-31 (2005)). N2a and 293T cells were cultured in DMEM medium containing 10% FBS, L-glutamine, and penicillin/streptomycin. Wnt3a expressing L cells and untransfected L cells were obtained from ATCC (Manassas, Va.). Wnt3a conditional medium was produced according to the ATCC protocol. To induce AHP differentiation, FGF2 was removed from the culture medium and 1 μM retinoic acid/1% FBS was added to the medium for 4 days. • Reagents. Recombinant Wnt3a protein was obtained from Chemicon (Rosemont, Ill.). FGF2 was obtained from PeproTech (Rocky Hill, N.J.). Recombinant GST-GSK3β was obtained from Active Motif (Carlsbad, Calif.). Recombinant GST-β-catenin and GST-axin were obtained from Millipore (Billerica, Mass.). The GSK313 inhibitor, SB-216763, AR-A104418 and His-GSK3β, were obtained from Sigma-Aldrich (Sigma-Aldrich, St. Louis, Mo.). L803-MTS was obtained from Calbiochem (San Diego, Calif.). GST-AKT1 was obtained from Cell Signaling (Beverly, Mass.). GST-CASK-1 (CASK fragment from 316-415aa), GST-CASK-2 (CASK fragment from 777-974aa), and GST-p25 proteins were kindly provided by Dr. B. A. Samuels. Mouse DISC1 peptidel (40-78aa: GYMRSTAGSG IGFLSPAVGMPHPSSAG LTGQQSQHSQS; SEQ ID NO: 1) and Mouse DISC1 peptide 2 (195-238aa, […] GERGEAEGCLPSREAE; SEQ ID NO: 2) were synthesized by Chi Scientific (Maynard, Mass.). • Antibodies. The primary antibodies used in this study were the following: rabbit anti-DISC1 C-terminal antibody, mouse and rabbit anti-GFP antibodies (Invitrogen, Carlsbad, Calif.); affinity purified rabbit anti-DISC1 antibody (Novus, Littleton, Colo.) for immunohistochemistry; mouse anti-FLAG and mouse anti-Actin antibody; mouse anti-GSK3β antibody, mouse anti-β-catenin antibody, mouse anti-pY216 GSK3β antibody, and mouse anti-nestin antibody (BD Biosciences, San Diego, Calif.); rabbit anti-[…] β-catenin antibody, rabbit anti-pS9 GSK3β antibody, and mouse anti-cyclin to D1 antibody (Cell Signaling); mouse anti-Dv12 antibody, mouse anti-HA antibody, mouse anti-GST antibody, mouse anti-ubiquitin antibody, and rabbit anti-β-catenin antibody (Santa Cruz, Santa Cruz, Calif.); mouse Tuj-1 antibody (BABCO, Harrisburg, Pa.); mouse anti-BrdU antibody (DakoCytomation, Glostrup, Denmark); guinea pig anti-doublecortin antibody (Chemicon, Rosemont, Ill.); chicken anti-GFP antibody (Ayes Labs, Tigard, Oreg.); rabbit anti-pS10 Histone H3 antibody (Upstate, Lake Placid, N.Y.). • Constructs. The sequences for shRNAs targeting DISC1 are as follows: control shRNA: 5′-CGGCTGAAACAAGAGTTGG-3′ (SEQ ID NO:3); DISC1 shRNA-1: 5′-GGCAAACACTGTGA AGT GC-3′ (SEQ ID NO:4); DISC1 shRNA-2: 5′-[…]-3′ (SEQ ID NO:5)(Kamiya A. et al. A schizophrenia-associated mutation of DISC1 perturbs cerebral cortex development. Nat. Cell Biol 7, 1167-78 (2005)). DISC1 shRNA-1 recognizes both rat and mouse DISC1. […]

[2] = biological target: T2, His-GSK3β (Homo sapiens, UniProt P49841); experiment: In vitro association (GST pull-down) with purified His-GSK3β; type: binding; details: GST-tagged DISC1 fragments, in vitro association assay
T2 construct: purchased Sigma-Aldrich (St. Louis, Mo.)
Description: (§1) • Mice. Swiss Webster pregnant female mice were purchased from Taconic (Hudson, N.Y.). • Cell Culture. AHPs were kindly provided by Dr. Gage (Lie, D. C. et al. Wnt signaling to regulates adult hippocampal neurogenesis. Nature 437, 1370-5 (2005)) and cultured under conditions described previously (Palmer, T. D., Takahashi, J. & Gage, F. H. The adult rat hippocampus contains primordial neural stem cells. Mol Cell Neurosci 8, 389-404 (1997)). Primary neural progenitors were isolated from E14 mouse embryos and cultured as described previously (Sanada, K. & Tsai, L. H. G protein betagamma subunits and AGS3 control spindle orientation and asymmetric cell fate of cerebral cortical progenitors. Cell 122, 119-31 (2005)). N2a and 293T cells were cultured in DMEM medium containing 10% FBS, L-glutamine, and penicillin/streptomycin. Wnt3a expressing L cells and untransfected L cells were obtained from ATCC (Manassas, Va.). Wnt3a conditional medium was produced according to the ATCC protocol. To induce AHP differentiation, FGF2 was removed from the culture medium and 1 μM retinoic acid/1% FBS was added to the medium for 4 days. • Reagents. Recombinant Wnt3a protein was obtained from Chemicon (Rosemont, Ill.). FGF2 was obtained from PeproTech (Rocky Hill, N.J.). Recombinant GST-GSK3β was obtained from Active Motif (Carlsbad, Calif.). […]

[3] = tested on: adult hippocampal progenitor (AHP) cells; experiment: AHP cell proliferation, BrdU labeling and mitotic index; type: cell-based; details: Wnt3a 200 ng/ml
Description: as §1

T1 sequence (P49841 whole entry, the tested form may be a part): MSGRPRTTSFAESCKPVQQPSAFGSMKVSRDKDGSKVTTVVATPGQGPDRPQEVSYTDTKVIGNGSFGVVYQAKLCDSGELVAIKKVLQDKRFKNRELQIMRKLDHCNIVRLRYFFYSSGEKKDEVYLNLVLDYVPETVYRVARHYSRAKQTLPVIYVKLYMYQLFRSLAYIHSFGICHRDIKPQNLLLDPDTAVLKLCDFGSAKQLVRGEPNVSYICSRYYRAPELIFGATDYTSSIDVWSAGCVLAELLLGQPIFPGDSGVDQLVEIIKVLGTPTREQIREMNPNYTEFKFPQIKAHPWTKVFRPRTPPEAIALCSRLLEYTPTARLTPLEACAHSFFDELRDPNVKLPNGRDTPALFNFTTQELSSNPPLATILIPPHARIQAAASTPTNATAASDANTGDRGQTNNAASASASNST
T2 sequence (P49841 whole entry, the tested form may be a part): as above

inhibition of GSK3β Y216 phosphorylation ([1]; at 0.1 μM): no inhibition
inhibition of GSK3β Y216 phosphorylation ([1]; at 1 μM): plateaued
B1: DISC1 fragment 1-220: GST-tagged mouse DISC1 protein fragment, amino acids 1-220 (protein)
chain: MQGGGPRGAPIHSPSHGADSGHGLPPAVAPQRRRLTRRPGYMRSTAGSGIGFLSPAVGMPHPSSAGLTGQQSQHSQSKAGQCGLDPGSHCQASLVGKPFLKSSLVPAVASEGHLHPAQRSMRKRPVHFAVHSKNDSRQSERLTGSFKPGDSGFWQELLSSDSFKSLAPSLDAPWNKGSRGLKTVKPLASPALNGPADIASLPGFQDTFTSSFSFIQLSLG
modifications: left off: a dimerising Fc or GST
inhibition of β-catenin, axin and GSK3β phosphorylation ([1]; GST fusion proteins at 0.5 μM): potently inhibited β-catenin, axin and GSK3β phosphorylation
inhibition of GSK3β activity by DISC1 fragments [1]: able to inhibit GSK3 activity; also recorded: most potent in inhibiting GSK3 activity; also recorded: most potent inhibitory activity on GSK3β; also recorded: dose-dependent
interaction with purified His-GSK3β [2]: strong interactions; also recorded: directly associate with purified GSK3β; also recorded: interacts directly

inhibition of GSK3β activity by DISC1 fragments [1]: able to inhibit GSK3 activity
B2: DISC1 fragment 356-595: GST-tagged mouse DISC1 protein fragment, amino acids 356-595 (protein, UniProt Q811T9 356-595, looked up, fragment)
chain: LKLQKCQEKVVEDGDYDTAETLRQRLEELEQEKGRLSWALPSQQPALRSFLGYLAAQIQVALHGATQRAGSDDPEAPLEGQLRTTAQDSLPASITRRDWLIREKQRLQKEIEALQARMSALEAKEKRLSQELEEQEVLLRWPGCDLMALVAQMSPGQLQEVSKALGETLTSANQAPFQVEPPETLRSLRERTKSLNLAVRELTAQVCSGEKLCSSLRRRLSDLDTRLPALLEAKMLALSG
modifications: GST tag
inhibition of GSK3β autophosphorylation (Y216) ([1]; GST-DISC1 fragments at 2 μM): started to inhibit GSK3β autophosphorylation
interaction with purified His-GSK3β [2]: strong interactions; also recorded: directly associate with purified GSK3β; also recorded: interacts directly

B3: Wnt3a: Recombinant Wnt3a protein obtained from Chemicon (protein, UniProt P56704 19-352, looked up)
Protein Wnt-3a: SYPIWWSLAVGPQYSSLGSQPILCASIPGLVPKQLRFCRNYVEIMPSVAEGIKIGIQECQHQFRGRRWNCTTVHDSLAIFGPVLDKATRESAFVHAIASAGVAFAVTRSCAEGTAAICGCSSRHQGSPGKGWKWGGCSEDIEFGGMVSREFADARENRPDARSAMNRHNNEAGRQAIASHMHLKCKCHGLSGSCEVKTCWWSQPDFRAIGDFLKDKYDSASEMVVEKHRESRGWVETLRPRYTYFKVPTERDLVYYEASPNFCEPNPETGSFGTRDRTCNVSSHGIDGCDLLCCGRGHNARAERRREKCRCVFHWCCYVSCQECTRVYDVHTCK
proliferation of AHPs [3]: significantly stimulated proliferation of AHPs
